18 substances from paper PMC9891525 can be followed below.

The first assay deals with biotinylated recombinant SARS-CoV-2 wild type spike RBD (UniProt P0DTC2). To be noted: n = 2 replicates; parent: est. 100; read off a plot.
In the case of “REGN10987 scFv displayed on the surface of HEK 293T cells D54F”, the percent of parent (Relative fluorescence) was 97. Same read-out and setting: the same measure for “REGN10987 scFv displayed on the surface of HEK 293T cells D54I”: 110; for “REGN10987 scFv displayed on the surface of HEK 293T cells D54L”: 130; for “REGN10987 scFv displayed on the surface of HEK 293T cells D54T”: 120. On the same count and under the same terms, the same measure for “REGN10987 scFv displayed on the surface of HEK 293T cells D54Y”: 82; for “REGN10987 scFv displayed on the surface of HEK 293T cells N57H”: 120; for “REGN10987 scFv displayed on the surface of HEK 293T cells S97Y”: 150.

The next assay has the same target. The settings on record: n = 2 replicates; parent: est. 110; read off a plot.
For the substance “REGN10987 scFv displayed on the surface of HEK 293T cells S97Y; D54F”, the percent of parent (Relative fluorescence) was determined as 100. The same measure, in the same setting: the same measure for “REGN10987 scFv displayed on the surface of HEK 293T cells S97Y; D54F; N57H”: 110; for “REGN10987 scFv displayed on the surface of HEK 293T cells S97Y; D54I”: 220.

Turning to “REGN10987 scFv displayed on the surface of HEK 293T cells S97Y; D54L”, the percent of parent (Relative fluorescence) was 220. Still for that read-out and setting: the value for “REGN10987 scFv displayed on the surface of HEK 293T cells S97Y; D54T” was 220; that for “REGN10987 scFv displayed on the surface of HEK 293T cells S97Y; D54T; N57H” was 240; that for “REGN10987 scFv displayed on the surface of HEK 293T cells S97Y; D54Y” was 130. Regarding “REGN10987 scFv displayed on the surface of HEK 293T cells S97Y; D54Y; N57H”, the percent of parent (Relative fluorescence) came out at 160. Same read-out and setting: the value for “REGN10987 scFv displayed on the surface of HEK 293T cells S97Y; N57H” was 200.

For a further assay the target is unchanged. To be noted: n = four independent experiments; read off a plot.
Regarding “REGN10987 scFv displayed on the surface of HEK 293T cells D54I”, the enrichment is 3.2 log2(FC).

A further assay has the same target. The settings on record: n = 2 replicates; parent: est. 100; read off a plot. The source holds these as a separate data set.
With “REGN10987 scFv displayed on the surface of HEK 293T cells L106N; N57F”, the percent of parent (Relative fluorescence) was found to be 120.

With “REGN10987 scFv displayed on the surface of HEK 293T cells L106N; N57T”, the percent of parent (Relative fluorescence) was 130.
